Key:
Test in all cases: luminescence, global fit of progress curves
Assay type in all cases: biochemical, Oplophorus gracilirostris
Settings in all cases: 100 mM potassium phosphate pH 7.50, 37 °C, co-substrate O2, pH 7.5
[1] = substrate: O=c1c(Cc2ccco2)nc2c(Cc3ccccc3)[nH]c(-c3ccccc3)cn1-2
Description: (§1) luminescence, global fit of progress curves on NanoLuc luciferase (NLuc)

[2] = substrate: Oc1ccc(Cc2nc3c(Cc4ccccc4)nc(-c4ccc(O)cc4)cn3c2O)cc1
Description: as §1

[3] = substrate: O=c1c(Cc2ccco2)nc2c(Cc3ccccc3)[nH]c(-c3ccccc3)cn1-2; remark: listed apart in the source
[4] = substrate: Oc1ccc(Cc2nc3c(Cc4ccccc4)nc(-c4ccc(O)cc4)cn3c2O)cc1; remark: listed apart in the source

Row | Protein | Km [1] [µM] | kcat [1] [s⁻¹] | kcat/Km [1] [M⁻¹ s⁻¹] | Km [2] [µM] | kcat [2] [s⁻¹] | kcat/Km [2] [M⁻¹ s⁻¹] | Km [3] [µM] | kcat [3] [s⁻¹] | kcat/Km [3] [M⁻¹ s⁻¹] | Km [4] [µM] | kcat [4] [s⁻¹] | kcat/Km [4] [M⁻¹ s⁻¹]
1 | NanoLuc luciferase (NLuc) (Oplophorus gracilirostris; A31E/A60N/A81I/F95D/I117V/K70R/L54V/L99Q/M102K/N193R/P142E/Q151K/Q38R/Q45L/V71I/Y121A/Y165I) (protein, engineered 19 kDa catalytic subunit of OLuc (16 residues mutated); monomer in solution, homotetramer in crystals) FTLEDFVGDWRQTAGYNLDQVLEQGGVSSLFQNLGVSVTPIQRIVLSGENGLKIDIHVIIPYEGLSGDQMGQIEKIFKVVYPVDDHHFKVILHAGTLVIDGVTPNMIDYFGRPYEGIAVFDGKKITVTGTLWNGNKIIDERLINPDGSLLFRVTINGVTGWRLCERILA | 1.29 ± 0.02 | 0.519 ± 0.007 | 402000 ± 6000 | 3.74 ± 0.09 | 0.225 ± 0.004 | 60000 ± 1000 | – | – | – | – | – | –
2 | NanoLuc luciferase (NLuc) (Oplophorus gracilirostris; A31E/A60N/A81I/D36R/F95D/H84A/I117V/K116R/K70R/L54V/L99Q/M102K/N193R/P142E/Q151K/Q38R/Q45L/V71I/Y165I) (protein, engineered 19 kDa catalytic subunit of OLuc (16 residues mutated); monomer in solution, homotetramer in crystals) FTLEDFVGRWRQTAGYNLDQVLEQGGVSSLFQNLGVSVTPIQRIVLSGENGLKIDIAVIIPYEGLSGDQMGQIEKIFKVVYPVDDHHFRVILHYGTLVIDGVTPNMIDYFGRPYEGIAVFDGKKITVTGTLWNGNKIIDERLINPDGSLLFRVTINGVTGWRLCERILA | – | – | – | 0.77 ± 0.07 | 40 ± 4 | 7e+07 ± 7e+06 | – | – | – | – | – | –
3 | NanoLuc luciferase (NLuc) (Oplophorus gracilirostris; A31E/A60N/A81I/D36R/F95D/I117V/K116R/K70R/L54V/L99Q/M102K/N193R/P142E/Q151K/Q38R/Q45L/V71I/Y165I) (protein, engineered 19 kDa catalytic subunit of OLuc (16 residues mutated); monomer in solution, homotetramer in crystals) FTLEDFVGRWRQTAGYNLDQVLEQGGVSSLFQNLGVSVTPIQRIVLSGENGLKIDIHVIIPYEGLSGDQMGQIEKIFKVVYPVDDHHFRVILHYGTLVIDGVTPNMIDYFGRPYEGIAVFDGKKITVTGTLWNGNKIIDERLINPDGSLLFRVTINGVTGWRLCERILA | – | – | – | – | – | – | 0.157 ± 0.009 | 5.2 ± 0.1 | 3.3e+07 ± 2e+06 | 0.46 ± 0.01 | 16.8 ± 0.6 | 3.7e+07 ± 1e+06
